Reference: patent US20090280480A1

Columns and labels:
[1] = target: T1, NM, the N-terminal and middle region of Saccharomyces cerevisiae Sup35 (soluble, unpolymerized) (Saccharomyces cerevisiae), P05453; test: Microcon YM-100 (100 kDa cut off) filtration of fibrillization reactions; settings: remark: other sources report otherwise
T1 chain: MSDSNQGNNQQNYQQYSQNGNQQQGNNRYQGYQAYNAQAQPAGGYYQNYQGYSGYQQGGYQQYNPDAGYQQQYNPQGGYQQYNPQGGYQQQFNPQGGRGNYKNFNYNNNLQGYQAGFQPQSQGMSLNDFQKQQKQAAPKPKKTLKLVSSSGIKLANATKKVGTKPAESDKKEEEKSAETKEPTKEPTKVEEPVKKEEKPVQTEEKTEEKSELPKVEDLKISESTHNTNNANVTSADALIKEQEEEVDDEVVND

[2] = target: T1, NM, the N-terminal and middle region of …; test: quaternary structure analysis of soluble NM; method not named; settings: remark: other sources report otherwise

B1: NM, the N-terminal and middle region of Saccharomyces cerevisiae Sup35 (soluble, unpolymerized), P05453 1-253 (protein)
chain: MSDSNQGNNQQNYQQYSQNGNQQQGNNRYQGYQAYNAQAQPAGGYYQNYQGYSGYQQGGYQQYNPDAGYQQQYNPQGGYQQYNPQGGYQQQFNPQGGRGNYKNFNYNNNLQGYQAGFQPQSQGMSLNDFQKQQKQAAPKPKKTLKLVSSSGIKLANATKKVGTKPAESDKKEEEKSAETKEPTKEPTKVEEPVKKEEKPVQTEEKTEEKSELPKVEDLKISESTHNTNNANVTSADALIKEQEEEVDDEVVND
[1]
  percent of total NM in an oligomeric state: 10%
[2]
  percent monomeric after dilution out of denaturant: 87%
